Laboratory results as given in patent US20060167238, “Gene expression using metal ion dependent repressor/operator tandems” (ADVANCED MICROBIAL SOLUTIONS CORPORATION, published 2006).

Assays:
Assay in all cases: EMSA
SirR = molecular target: T1, SirR (UniProt Q5HRA0 Q5HRA0:1-214)
T1 sequence: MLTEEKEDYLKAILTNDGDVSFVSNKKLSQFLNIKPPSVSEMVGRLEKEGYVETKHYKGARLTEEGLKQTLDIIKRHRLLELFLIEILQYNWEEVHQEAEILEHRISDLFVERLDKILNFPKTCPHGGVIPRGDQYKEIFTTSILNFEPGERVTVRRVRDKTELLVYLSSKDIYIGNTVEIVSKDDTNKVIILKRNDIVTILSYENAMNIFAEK

EfaR = EfaR (Enterococcus faecalis, UniProt Q93CH5 Q93CH5:1-222); details: tags: untagged (pQN vector); label: 32P
DtxR = molecular target: T2, DtxR (Corynebacterium diphtheriae, UniProt P0DJL7 P0DJL7:1-226); details: chain copies: 4
T2 sequence: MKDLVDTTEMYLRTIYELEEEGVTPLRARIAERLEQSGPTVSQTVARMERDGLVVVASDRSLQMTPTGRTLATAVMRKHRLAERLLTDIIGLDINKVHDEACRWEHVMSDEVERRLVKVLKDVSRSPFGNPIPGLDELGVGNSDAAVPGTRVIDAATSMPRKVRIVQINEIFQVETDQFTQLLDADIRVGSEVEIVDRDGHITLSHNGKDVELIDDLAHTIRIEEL

Binder | binding result (DtxR) | further results
sitABC box (dsDNA) DNA 1: AACTTGACATGTTAAAACTTTAGAGTATATTATAAAATAAATTAGGTTAACCTAAACTTTTTATTAGGAGG DNA 2: CCTCCTAATAAAAAGTTTAGGTTAACCTAATTTATTTTATAATATACTCTAAAGTTTTAACATGTCAAGTT |  | binding result (SirR): binds
efaABC promoter/operator (efa box) (dsDNA) DNA 1: TTTTCTTAAACTATCCCTTATACTGATTTTAAGGCAAACCTAAAAA DNA 2: TTTTTAGGTTTGCCTTAAAATCAGTATAAGGGATAGTTTAAGAAAA |  | binding result (EfaR): binds
tacPtoxO hybrid promoter/operator (dsDNA) DNA 1: CCCTGTTGACAATTAATCACCGGTACCTATAATTAGGATAGCTTTACCTAATTATTTTACACCC DNA 2: GGGTGTAAAATAATTAGGTAAAGCTATCCTAATTATAGGTACCGGTGATTAATTGTCAACAGGG | binds | 
tacP (dsDNA) DNA 1: CCCTGTTGACAATTAATCATCGGCTCGTATAATGTGTGGAATTGTGAGCGGATAACAATTTCA DNA 2: TGAAATTGTTATCCGCTCACAATTCCACACATTATACGAGCCGATGATTAATTGTCAACAGGG | no binding | 
